From patent US9669247B2 (priority 2011, dated 2017)

Experiments:
[1] = pH 7
[2] = pH 7; remark: listed apart in the source

B1: TsmE (protein)
chain: METDKKTGTSRRSFVKAAGTGAIGIATLPLSTATAFAETDNVELAQSKRKVVLAEQGSFYIGGRTVTGPGKFDPSKPVIPYSNEGATFYINQMYVNFQAPVRPRGLPLVFWHGGGLTGHIWESTPDGRPGFQTLFVQDRHTVYTIDQPGRGRGNIPTFNGPFGQLEEESIVNTVTGNSSKEGAWVRDRLGPAPGQFFENSQFPRGYEDNYFKEMGFSPSISSDEIVDAVVKLVTHIGPCVLVTHSASGVLGMRVATHAKNVRGIVAYEPATSIFPKGKVPEIPPLADKKSQIFPPFEIQESYFKKLAKIPIQFVFGDNIPKNPKSAYWFLDWWRVTRYAHSLSLEAINKLGGQASLLDLPTAGLRGNTHFPFTDRNNVQVASLLSDFLGKHGLDQNES
modifications: Methylophilus sp. S113; Thiefensulfuron Hydrolase TSME
specific enzyme activity of TsmE to thifensulfuron [1]: 67 U/mg protein
specific enzyme activity of TsmE to haloxyfop-R-methyl [2]: 55 U/mg protein
